This is an account of results in patent US20210155689A1 (SHANGHAI PHARMAEXPLORER, published 2021).

Residue numbers refer to the chain shown, from its start.

The target in test [1] is T1, human LAG-3 protein with hFc tag (hLAG-3-hFc protein) (human, UniProt P18627 23-450).
T1 construct: also called immunogen 1; LAG-3 extracellular domain protein; not shown: human IgG Fc fragment (hFc) of the pCpC vector
T1 sequence: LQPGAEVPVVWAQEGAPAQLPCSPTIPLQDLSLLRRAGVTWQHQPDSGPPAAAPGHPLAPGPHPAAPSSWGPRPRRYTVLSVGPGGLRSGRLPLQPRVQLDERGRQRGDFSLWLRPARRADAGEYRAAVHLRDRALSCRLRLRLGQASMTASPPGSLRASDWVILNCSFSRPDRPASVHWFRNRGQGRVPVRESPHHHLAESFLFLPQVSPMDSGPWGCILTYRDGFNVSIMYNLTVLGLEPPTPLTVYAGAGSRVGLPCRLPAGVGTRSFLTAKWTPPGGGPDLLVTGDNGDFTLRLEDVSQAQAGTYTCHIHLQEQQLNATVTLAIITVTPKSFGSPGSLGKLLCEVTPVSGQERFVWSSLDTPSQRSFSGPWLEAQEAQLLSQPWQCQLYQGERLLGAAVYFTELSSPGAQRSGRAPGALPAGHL
The test can be described thus: FACS, blocks LAG-3-hFc binding to MHC II on Raji; 7.407 nM. How it is done:
(§1) The FACS reaction plate incubating the Raji cells was centrifuged to discard the supernatant. The above mixture was added as 100 μl per well to Raji cells and incubated on ice for 1-2 hours. The plate was washed twice with blocking solution (PBS, 2% fetal bovine serum) by centrifugation, added with 100 microliters of fluorescent (Alexa 488)-labeled secondary antibodies per well, and incubated on ice for 1.0 hours. The plate was washed 2-3 times by centrifugation with blocking solution (PBS, 2% fetal bovine serum), added with 100 microliters of PBS per well to suspend cells, and detected using FACS (FACS Calibur, BD) and the results were analyzed. Wherein, the IgG control was murine IgG, and the data in the table is the inhibition rate (%).

The target in test [2] is T2, LAG-3-hFc protein (human LAG-3 extracellular region with hFc tag) (human, UniProt P18627 23-450).
T2 construct: also called hLAG-3-hFc; LAG-3 protein; not shown: human IgG Fc fragment (hFc) of the pCpC vector
T2 sequence: T1 sequence
The test can be described thus: FACS, inhibition of LAG-3-hFc binding to MHC II on Raji cells, antibody 0.274 nM. How it is done: as §1
For orientation: Flow cytometry measures light scatter and fluorescence of single cells or particles in a stream.

For test [3], the target named is T3, hFc tagged monkey LAG-3 protein (cLAG-3-hFc protein) (monkey; human).
T3 construct: Made in HEK293 cells; also called monkey LAG-3 extracellular domain protein; not shown: human IgG Fc fragment (hFc) of the pCpC vector
T3 chain: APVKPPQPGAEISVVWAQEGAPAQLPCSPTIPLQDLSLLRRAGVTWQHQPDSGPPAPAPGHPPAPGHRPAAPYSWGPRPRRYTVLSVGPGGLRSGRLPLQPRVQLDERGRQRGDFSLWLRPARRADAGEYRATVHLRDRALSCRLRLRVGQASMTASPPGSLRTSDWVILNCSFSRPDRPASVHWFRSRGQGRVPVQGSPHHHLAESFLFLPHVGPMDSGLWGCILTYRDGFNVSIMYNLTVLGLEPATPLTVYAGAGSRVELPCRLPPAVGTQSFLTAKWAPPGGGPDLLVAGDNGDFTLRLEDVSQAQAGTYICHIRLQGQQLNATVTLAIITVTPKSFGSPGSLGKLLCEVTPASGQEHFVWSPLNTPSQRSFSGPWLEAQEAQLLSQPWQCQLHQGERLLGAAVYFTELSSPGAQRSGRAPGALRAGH
Kind of test: ELISA, cLAG-3-hFc coated; 0.0667 nM. How it is done:
(§2) The plate was sealed with plastic film and incubated overnight at 4° C. The plate was washed 2 times with the plate washing solution (PBS+0.01% Tween20) on the next day, and added with the blocking solution (PBS+0.01% Tween20+1% BSA) and blocked at room temperature for 1-2 hours. The blocking solution was poured out, and the plate was added with 50-100 μl of the antibody sample to be tested to each well, incubated at 37° C. for 1-2 hours, and washed 2-3 times with a plate washing solution (PBS+0.01% Tween20). HRP (horseradish peroxidase) labeled secondary antibody was added, and the plate was incubated at 37° C. for 1-2 hours, and washed 2-3 times with a plate washing solution (PBS+0.01% Tween20). 100 μl of TMB substrate was added to each well. After incubated at room temperature for 15-30 minutes, the plate was added with 100 μl of stop solution (1.0N HCl) to each well.
(In an ELISA, binding on a coated surface is turned into a signal by an enzyme label.)

Test [4] addresses T4, mouse LAG-3 protein with hFc tag (mLAG-3-hFc protein) (mouse; human, UniProt Q61790 24-442).
T4 construct: Made in HEK293 cells; also called mouse LAG-3 extracellular domain protein; not shown: human IgG Fc fragment (hFc) of the pCpC vector
T4 sequence: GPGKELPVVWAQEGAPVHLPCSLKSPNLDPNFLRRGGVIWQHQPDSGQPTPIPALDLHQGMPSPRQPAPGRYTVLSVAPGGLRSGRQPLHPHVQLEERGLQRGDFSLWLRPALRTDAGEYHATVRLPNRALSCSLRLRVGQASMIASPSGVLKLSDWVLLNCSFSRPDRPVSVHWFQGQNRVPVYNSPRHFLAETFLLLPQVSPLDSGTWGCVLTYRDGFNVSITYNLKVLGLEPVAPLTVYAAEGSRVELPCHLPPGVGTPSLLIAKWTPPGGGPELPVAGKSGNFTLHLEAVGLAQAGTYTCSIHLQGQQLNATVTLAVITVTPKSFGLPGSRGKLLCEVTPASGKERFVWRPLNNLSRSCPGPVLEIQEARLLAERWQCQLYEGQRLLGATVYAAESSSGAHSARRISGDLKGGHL
Kind of test: ELISA, mLAG-3-hFc coated; 0.0007 nM. The protocol: as §2

Test [5] has as its target T4, mouse LAG-3 protein with hFc tag …. Kind of test: ELISA, mLAG-3-hFc coated; 0.0067 nM. The protocol:
as §2

B1: 405B8H3 (mouse antibody purified from hybridoma) (antibody, V domains shown)
VH: QVQLQQSGAELVRPGASVTLSCKASGYTFTDYEMHWVKQTPVHGLEWIGATDPETGNSAYNQKFKGKAIMTADKSSSTAYMELRSLTSEDSAVYYCISTGWNDWGQGTSLTVSS
VL: DIKMTQSPSSMYASLGERVTITCKASQDINSYLSWFQQKPGKSPKTLIYRADRLLDGVPSRFSGSGSGQDYSLTISSLEYGDMGIYYCLQYDEFPYTFGGGTKLEIK
notes: also called mAb103-405B8H3; 405B81-13
Regarding B1, the “Inhibition rate (%)” value in test [1] worked out at 87.3%.

B2: 405B8H3 mouse-human chimeric antibody (antibody, V domains shown)
VH: B1 VH
VL: B1 VL
notes: also called mAb103-405B8H3
Turning to B2, in test [2], the “Inhibition rate (%)” value was 4.3%.

B3: 105F1E10 (mouse antibody purified from hybridoma) (antibody, V domains shown)
VH: EVQLQQSGPELVKPGASVKMSCRASGYTFTDFKMHWMKQSHGKSLEWIGYIAPNNGGTAYNQKFRGKATLTVNESSNTAYMELRSLTSEDSAVYYCVDWDDVDYWGQGTTLTVSS
VL: B1 VL with P40S, D52N, L55V, G81E, D92V, Y96L, G100A, I106L
notes: also called mAb009-105F1E10
Consider B3, for which the “Inhibition rate (%)” value in test [1] amounted to 81%.

B4: 405B8H3 (LAG-3 mouse-human chimeric antibody) (antibody, V domains shown)
VH: B1 VH
VL: B1 VL
notes: also called mouse-human chimeric antibody 405B8H3
As to B4, the OD450 in test [3] came out at 1.96 OD450; in test [4], 0.08 OD450; in test [5], 0.08 OD450.

B5: 105F1E10 mouse-human chimeric antibody (antibody, V domains shown)
VH: B3 VH
VL: B1 VL with P40S, D52N, L55V, G81E, D92V, Y96L, G100A, I106L
notes: also called mAb009-105F1E10
For the molecule B5, the “Inhibition rate (%)” value in test [2] is -10.1%.

B6: 105F1E10 (LAG-3 mouse-human chimeric antibody) (antibody, V domains shown)
VH: B3 VH
VL: B1 VL with P40S, D52N, L55V, G81E, D92V, Y96L, G100A, I106L
In the case of B6, the OD450 in test [3] was found to be 1 OD450; in test [4], 0.08 OD450; in test [5], 0.09 OD450.

B7: 409B11E12 (LAG-3 mouse-human chimeric antibody) (antibody, V domains shown)
VH: B1 VH with P41T, G56S, N57Y, M70L, S98A
VL: B1 VL with I2L, D52N, G81E
As to B7, the OD450 is 1.91 OD450 in test [3], 0.08 OD450 in test [4] and 0.07 OD450 in test [5].

B8: 409D4E10 mouse-human chimeric antibody (antibody, V domains shown)
VH: B1 VH with Y27N, G56D, S58T, M70L, A72T, S98T, T99S
VL: B1 VL with D52N, G81E, D92N
notes: also called mAb112-409D4E10
On to B8, for which the “Inhibition rate (%)” value in test [2] amounted to 11.3%.

B9: 409D4E10 (mouse antibody purified from hybridoma) (antibody, V domains shown)
VH: B1 VH with Y27N, G56D, S58T, M70L, A72T, S98T, T99S
VL: B1 VL with D52N, G81E, D92N
notes: also called mAb112-409D4E10
For the molecule B9, the “Inhibition rate (%)” value in test [1] turned out to be 93%.

B10: 409D4E10 (LAG-3 mouse-human chimeric antibody) (antibody, V domains shown)
VH: B1 VH with Y27N, G56D, S58T, M70L, A72T, S98T, T99S
VL: B1 VL with D52N, G81E, D92N
As for B10, the OD450 in test [3] stood at 3.05 OD450; in test [4] it was 0.13 OD450; in test [5], 0.09 OD450.

B11: 409B11E12 mouse-human chimeric antibody (antibody, V domains shown)
VH: B1 VH with P41T, G56S, N57Y, M70L, S98A
VL: B1 VL with I2L, D52N, G81E
notes: also called mAb104-409B11E12
For B11, in test [2], the “Inhibition rate (%)” value amounted to 4.4%.

B12: 409B11E12 (mouse antibody purified from hybridoma) (antibody, V domains shown)
VH: B1 VH with P41T, G56S, N57Y, M70L, S98A
VL: B1 VL with I2L, D52N, G81E
notes: also called mAb104-409B11E12
Take B12: the “Inhibition rate (%)” value in test [1] turned out to be 93.4%.

B13: 556F6B8 mouse-human chimeric antibody (antibody, V domains shown)
VH: RVQLKQSGPGLVQPSQSLSITCTVSGFSLIKYGVHWVRQSPGEGLEWLGVIWRGGITDYNAAFMSRLSITKDNSKSQVFFKMNSLQADDTAIYYCAKWDGPLAMDYWGQGTSVTVSS
VL: DIVMTQSHKFLSTSVGDRVSITCKASQDVGTTVAWYQQKPGQSPKLLIYWASTRHTGVPDRFTGSGSGTDFTLTISNVQSEDLADYFCQQYSSYPYTFGGGTKLEIK
notes: also called mAb123-556F6B8; 556F8B8
Consider B13, for which, in test [2], the “Inhibition rate (%)” value was 21.5%.

B14: 556F6B8 (mouse antibody purified from hybridoma) (antibody, V domains shown)
VH: B13 VH
VL: B13 VL
notes: also called mAb123-556F6B8
In the case of B14, the “Inhibition rate (%)” value in test [1] came to 93.3%.

B15: 556F6B8 (LAG-3 mouse-human chimeric antibody) (antibody, V domains shown)
VH: B13 VH
VL: B13 VL
notes: also called 556F8B8
On to B15, for which the OD450 in test [3] was 2.43 OD450; in test [4], 0.08 OD450; in test [5] it was 0.14 OD450.
